Assay: label from the status in PepcDB records

Q: Which protein production does the source give for “MQTLREFTRKTKRGNILKIVREHYLRDDIGCGSELCRECFQNEVYQLTSQHANKSTLFKFPHYLVLDTNVVLDQIDVLEEDVLRNVVVLTTVLNEVKHRSSAIYKRFNEIVHDRTRNFYVFVNEHHKETYADREPDETANDRNDRAIRLATKWYDDHLQASQSSKEFERSGKAATRVVLLTDDAANRAKAEAEGILVTTAAEYVKSLEDFPLLMDKLSHKTFDSEKNGLPQYPPHLSMKELLEGLRQNKLLQGTFQASRENYLEGTVNVEKFEKGILIQGRESLNRAVDGDLVAVELLPEAEWSAPSEIVLEEKNVYADEVPSEERAKDENEMLNQVRAAALSAERTPTGRIVGIVRRKWRQYCGILQPSLIEDTNRHIFVPADRKIPRIRIETRQAAMLQNQRIIVTIDTWPRNSRYPHGHFVRSLGPLGDMATENEVILLEHDVPHCKFSDEVLSFLPKMPWTITDEDYSKRVDLRDLYICSVDPPGCTDIDDALHCKELPNGNLEVGVHIADVSHFIRPGNALDMEAAARGTTVYLVGKRIDMVPELLSSNLCSLVGGVERFAFSCVWEVDNEANVLSKRFHKSVIKSKRAMTYEEAQNIIDDATQQNEIAKSLRNLNRLAKILKKRRMDNGALVLASPEIRFQVDSETHEPLEVEVKQMRETNSMVEEFMLLANITVAEHIATEFSECAVLRRHPRPPPTNFDPLVKSARYQGFQVDINSGLELSHSLDKCVKADNPYFNTMIRILTTRCMMQAVYFISGSLQKEEFFHYGLAAPIYTHFTSPIRRYSDIMVHRLLAASIGADSTYAQLLDRKSNEELCHNLNYRHKMAQYAGRASVALNTHLFFRGKEEDEEGYVLFVRKNALQVLIPKYGLEGTLYLKSDKDGKDGVERVKSEIVFTFNEEDHTQRCGDVVFHSFDPVTVRLSLDSSNVQHEKLIFRLVKPYIKGFSVETTTEGTDSQAVSAAPPSKKTKKDKKKK” here?
A: failed

Q: With “MQTNLLSRPTSAKSTSMSDKINHPQLCQWLESVAISRDKQAFTHLFQFFAPKILRIARGKFPNEAQANEVVQDTMSNVWRKAHLYNQDKGAATTWVYTVMRNVTFDMLRKIQGNKEDNLSDDIWPIAESMSIENEIFDDHLEHANLLSVIEELPQAQQDVVKGFYFREMSQEQLAVHLHLPLGTVKSRLRLALGKLKVQLGEKHD” as the sequence, how does the protein production read?
A: failed

Q: For “MQTPPRLVAIGGLSGSGKTTIAEALAAHVGAPPGARIVESDRIRKAMHGVPAETRLPDNAYRPDVSDRVYNEMTWRAGLILSEGGSVVADAVFDRPADRERIEKAARDRGIPFFGFWLEADPLVLWQRVSERKGGPSDATVDILSRQLQRKAGLEHHHHHH”, which protein production is on record?
A: failed

Q: For “MQTQLTEEMRQNARALEADSILRACVHCGFCTATCPTYQLLGDELDGPRGRIYLIKQVLEGNEVTLKTQEHLDRCLTCRNCETTCPSGVRYHNLLDIGRDIVEQKVKRPLPERILREGLRQVVPRPAVFRALTQVGLVLRPFLPEQVRAKLPAETVKAKPRPPLRHKRRVLMLEGCAQPTLSPNTNAATARVLDRLGISVMPANEAGCCGAVDYHLNAQEKGLARARNNIDAWWPAIEAGAEAILQTASGCGAFVKEYGQMLKNDALYADKARQVSELAVDLVELLREEPLEKLAIRGDKKLAFHCPCTLQHAQKLNGEVEKVLLRLGFTLTDVPDSHLCCGSAGTYALTHPDLARQLRDNKMNALESGKPEMIVTANIGCQTHLASAGRTSVRHWIEIVEQALEKE”, which protein production is on record?
A: failed

Q: For “MQVEETSIEEIQTKIKRLNSKAGQMKMDLHDLAEGLPTDYTQLMDVAAATYEIYRQLDELKQELKKLENAK”, which protein production is on record?
A: failed

Q: With “MQVHYYGGTAEAAGTSEETVETPTGLSVNQLLDHLRNLHPGLGRLLGVCTLFVDGSAVRGEQIVPARAQVEVLPPFAGG” as the sequence, how does the protein production read?
A: failed

Q: Which protein production does the source give for “MQVIKQKLTATCAQLTGYLHQPDTNAHQTNLPAIIIVPGGSYTHIPVAQAESLAMAFAGHGYQAFYLEYTLLTDQQPLGLAPVLDLGRAVNLLRQHAAEWHIDPQQITPAGFSVGGHIVALYNDYWATRVATELNVTPAMLKPNNVVLGYPVISPLLGFPKDDATLATWTPTPNELAADQHVNSDNQPTFIWTTADDPIVPATNTLAYATALATAKIPYELHVFKHGPHGLALANAQTAWKPDANQPHVAHWLTLALEWLADNR” here?
A: not failed

Q: Which protein production does the source give for “MQVLVVGANGQVGRLLMQQLLAAGDTPVAGLKPTEDGEEWADQGLMVCKMDLLAKPEQLASAIMGMDAVIFAAGSGGQTKADMTLLIDLDGAVKTMQAAEIAGVSRFLMISMLFAEDRNRWADPLKPLYVAKFYADNWLVRQTHLDYTIVQPGALSFHAGTGLIKSDPLAVGSVPRADLAAFLVAALHAPQTIGKTIPLLSGDQSIAQVIDQL” here?
A: failed

Q: For “MQVSQANLNLNFDANSLQRGKRYFSQGRVQNLVRETEGMSIQVLRAEVSGSQRQLYITEVRFDRYLPGKINTFCSCPVGFRCKHAAAVILQANHEAGLSAEKYESEADTRYKYPTAETWLEQAASVFSSIDNASNPECLAYLLHIEPHRSQQTLSVNKVRRRKSGEYSRGSKTTVWSRTNLEYDRPKYLRESDIAPLTWLNALPTAFRVSPVLEGTTGAYFIESALKTRRFFLESTQNPPLQLGETLESGFEWMQLPDKQHWQLVSKALPSHIRLLNTSPAYYLDEKELLIGRVENSLDARTTALLQQCPPLAESQLQQALPDLAPILEKAGAVLPESFQVPSMVQAAPQPILQLYSLQHPAPGTLPLLMARLMFSYEGHRVAFSEQEPRVLVDGNNGPLLVIRDEDAEIEWLHRDLPDFKMAGTMTDHLEADMVNALPYGSFLDFTLPTRNQWLDFIAFDLPRLDAGGWQIEMDESFDIPVIEIDQLHGSLKPDEESPGWFDVEVGIDYNGTQIDLIPLLQQALVYLDLNNDSDDALPETLWLHNGDALIRVVSDRIRPLVRTLLSLLGKERGGKLRLPKLDAAQVMGDLAADWQCSAELRNLSEKLTSFQALNHVPVPSEVRAELRHYQQDGLNWLMFLREFGLGGVLADDMGLGKTLQTLACIQAEKTAGRLTAPALVVCPTTLIANWEAEAEKFTPGLKRLVIHGQRRKPFFDMVAEADLVITSYPLLHRDLEQHQNQSYSLAFFDEAQHLKNPATVTSKAARRLPAENRIALTGTPMENHLGELWALFDLILPGYLADQKIFREHYRKPIEEQGNQSRYAELSRRVRPFMLRRTKDQVTPELPEKTEIVRHVELNRQQKDLYETIRATMDKRIRKLLAEKGAARSQIEILDALLKLRQICCHPALLNPEETAGSAKLDSLMEMLEQLLDEGRKVIIFSQFTSMLALIETTLKAAGIGYEKLTGQTRDRATPVKRFQNGESPVFLISLKAGGTGLNLTAADCVIHYDPWWNPAAEQQATDRAWRIGQDKPVFVYRLITEGTVEERIQALQARKSQLADGLYGKADTFSSAITADDISVLFEK”, which protein production is on record?
A: failed

Q: For “MQYATLELNNAFKVLFSLRQVQAAEMVIAPGDREGGPDNRHRGADQWLFVVDGAGEAIVDGHTQALQAGSLIAIERGQAHEIRNTGDTPLKTVNFYHPPAYDAQGEPLPAGEG”, which protein production is on record?
A: not failed

Q: Which protein production does the source give for “MQYLIVKYSHQIFVTITILVFNIRFFLLWKNPEKPLAGFWKALPHLNDTMLLFTGLWLMKITHFSPFNAPWLGTKILLLLAYIALGMMMMRARPRSTKFYTVYLLAMCCVACIVYLAKTKVLPF” here?
A: failed

Q: For “MRAALTGGGLVLAYTAVISSADAITKLIAQGYAAPQLYAISGLIVAAISLAAARRNRARALKTVCPRAMALRALATVVASLCFFHTFRLLPFADVFVFIGLMPIMAALMSGLMLDEHARPAAWAALVAGFVGVLCLMPGGIGAIGAGHLWALGGVVTGTFSLILSRYIGRYESNALAQVFYPNLALGLSMAAALPFVWVPMPMLDLAWVGAYAALLFLARWLLVIALRLLAAYVVTPLLNLQFVWMVALGALAFGEWPAPMTWLGAAIVMVSGLYLIWDQMTPTTREQEELSLRTDP”, which protein production is on record?
A: failed

Q: For “MRAFDAYKILDEQEAGSLIDLIAPCMDDYLYIIDLKNDTLRISQSAVERFMLPDKFMNDATKHLRTLVYEKDRKLLENHKRKIYDGKEKRYNVLCRLMNSKNLPVWINCRGEVINDEAGKPRYIIGCMNETGTRQRADNISGLLGEKEMASYLYSQPKEKLSGYFIQIGIDDFGIINNVQGQIYGNYILKRVAECIAECLSSGQRIYHLVTDKYMLVDMLSKSQDDVVQLFKRIGEKIDEFIVDENYKSIFSISAGVTDISTLAEDAIECRKKSDFSLKCAKKRGGGSLYFFEEEDYKVSLRKNTILSALRSATVNDFEGFEVYYQPILDSADRIIGAEALLRFFMHSDEGDEMISPVEFIPLLEKSRLIIPVGEFVLNEAAKMCREMQQYIADFRVNINVSYIQIMRGSMANKILTAIRANNLRPESICIEMTESGFMDMTPCFCSFRKKLDENNIQFIIDDFGTGYSNLRYISEMNPDYVKIDKDFTARAMSSEKDYELFRKIIEMVHSINIKICIEGIEKEEWACAMKEIHVDYMQGYLYGRPCEKGVFLNNYGI”, which protein production is on record?
A: failed

Q: Which protein production does the source give for “MRAFFNSSMREKLSQLKARQQKQEMPANLSIIHALRATQEGFEDDGVMRNYDLLESQFKENLTKEDRELLESPKPNLEKLQELKIRLLEKNGIFKPPKQKSQISLVFGMNALVPLGTIKTL” here?
A: failed

Q: Which protein production does the source give for “MRAFPFFRPVLAQLMKHRVAQESTRRWLDRIIQIIKYAYCQKLRRHFCQATLWKMIQLIVNGQSQLVPSPDSGTDSGTTNDARLNIRQLLEHMGLQGKRIAVERNGEIVPRSQFDQPMLASGDKLEIVVAVGGGLEHHHHHH” here?
A: failed

Q: With “MRASSSQGTPMNTALHDNREVVTVCLQHKVLDGSPGTPAAQPPRWKQALLTYLVICPMTMVIPQLLAPLFARFPQLGGVITGNLIVNLFVILPVVFYIMPWVTRRCANWLRG” as the sequence, how does the protein production read?
A: failed

Q: Which protein production does the source give for “MRCPGCGAAIQFDDPKKPGYIPREVFEKRLEEGKEILCQRCFRMKHYGKLEPVEFDWDFKNQLKSYLGGFDVVVWVIDIFDFEGTYREDIAEILKGKRVIYVINKIDLLPRAVTVKEIKEWVKKRIKTKNTDDIRIVSAEKNFGLTSLVKYLSRLTDKALVVGVTNVGKSSLLNKICTHENTISPFPGTTLGILKRKVKEANLYLYDTPGIMTSDRILDLLDPECQKRVLPREELSRKTFKPDNGRTIFMGGLCRFDIHFETEKNPIFLLFSSKEVTFHETRRERADELMRNRLGDLLIPPCSKTKFENFKWKRETFTLKEGEELAVAGLGWMSVRRGPFTVEVTVPDSVKLVVREALVNPKRLEHHHHHH” here?
A: not failed

Q: Which protein production does the source give for “MRCTRLEARRMLSHINENQQPQMVDISEKAVSDRRAVAEALIELPPVFQAYVQGGDLFLKKGPVVQTAIIAGTMAVKRTAEVIPFCHPLPITSCRFETDIESQESGLRIRLRCEVKTCDRTGVEMESLHGVAIAALTIYDMAKALSPHIVIREVRLLAKSGGKKTLGQYPLYGLVLTGGQSQRMGQAKALLDYYGEPHAQYLYNLLAQSCEQVFLSAQPNQWQGTPLADLPTLPDILPQIGPIAGILTALRAYPQVNWLVVACDLPYLTTETLAPLLHHYREDVVATCYHHPQEGFPEPLCAIYTPQALPVFEAAYAEGIYCPVKILQRSPCQRIAPPQPTITANINTPEEYHEALHHVRRP” here?
A: failed

Q: For “MRDFLKLLKKHDELKIIDTPLEVDLEIAHLAYIEAKKPNGGKALLFTQPIRKEHDQIKTFGMPVLMNAFGSFKRLDLLLKTPIESLQQRMQAFLHFNAPKNFTEGLKVLKDLWDLRHIFPKKTTRPKDLIIKQDKEVNLLDLPVLKTWEKDGGAFITMGQVYTQSLDHQKKNLGMYRLQVYDKNHLGLHWQIHKDSQLFFHEYAKAKVKMPVSIAIGGDLLYTWCATAPLPYGIYELMLYGFMRGKKARVMPCLSNSLSVPSDCDIVIEGFVDCEKLELEGPFGDHTGYYTPIEPYPVLEVKTISYKKDSIYLATVVGKPPLEDKYMGYLTERLFLPLLQMNAPNLIEYYMPENGVFHNLILAKIHTRYNAHAKQVMHAFWGVGQMSFVKHAIFVNEDAPNLRDTNAIIEYILENFSKENALISQGVCDALDHASPEYAMGGKLGIDATSKSNTPYPTLLNDSALLALLQDKMQNIVLLKQYYPHTRNPICVISVEKKDKSVIELAKNLLGFEEHLRIVIFVEHASNDLNNPYMLLWRIVNNIDARRDILTSKHCFFIDATNKGVMDKHFREWPTETNCSMEVIENLKKKGLLKDFETLNQKFHLTHSFSTHKEDL”, which protein production is on record?
A: failed
